The record followed here is PMC11367651.

Details in all cases: reference: unphosphorylated MAP2c; sites Y67
Experiment [1] concerns the target Grb2 (growth factor receptor-bound protein 2) SH2 domain, 57-158 (UniProt P62993). The experiment in a line: NMR HNCO chemical shift perturbation of MAP2c.
Experiment [2] shares this target. The experiment in a line: 1H,15N HSQC titration of 15N-Grb2-SH2 with MAP2c.
For experiment [3] the target is unchanged. Briefly: NMR HNCO peak broadening of labeled MAP2c.

Take “MAP2c (microtubule-associated protein 2c) (from UniProt P15146) Fyn-phosphorylated MAP2c”: the “binding against the reference” value in experiment [1] is “gained”; in experiment [3] it was “stronger”. The KD entry in experiment [2] is “gained; reference No significant CCSP”.
